Reference: PMC12861479, “SlERF.D2-mediated antagonism between ethylene and ABA signaling pathways modulates osmotic stress adaptation in tomato”

Tests used:
Assay in all cases: EMSA; not stated; EMSA performed as in a previous study (ref 68)
[1] = biological target: T1, MBP-SlEIL3 (Solanum lycopersicum (tomato), UniProt Q94FV2 1-601); conditions: protein: recombinant; tags: MBP (pMAL-c5G); chain copies: 2; label: 5' biotin; blunt
T1 sequence: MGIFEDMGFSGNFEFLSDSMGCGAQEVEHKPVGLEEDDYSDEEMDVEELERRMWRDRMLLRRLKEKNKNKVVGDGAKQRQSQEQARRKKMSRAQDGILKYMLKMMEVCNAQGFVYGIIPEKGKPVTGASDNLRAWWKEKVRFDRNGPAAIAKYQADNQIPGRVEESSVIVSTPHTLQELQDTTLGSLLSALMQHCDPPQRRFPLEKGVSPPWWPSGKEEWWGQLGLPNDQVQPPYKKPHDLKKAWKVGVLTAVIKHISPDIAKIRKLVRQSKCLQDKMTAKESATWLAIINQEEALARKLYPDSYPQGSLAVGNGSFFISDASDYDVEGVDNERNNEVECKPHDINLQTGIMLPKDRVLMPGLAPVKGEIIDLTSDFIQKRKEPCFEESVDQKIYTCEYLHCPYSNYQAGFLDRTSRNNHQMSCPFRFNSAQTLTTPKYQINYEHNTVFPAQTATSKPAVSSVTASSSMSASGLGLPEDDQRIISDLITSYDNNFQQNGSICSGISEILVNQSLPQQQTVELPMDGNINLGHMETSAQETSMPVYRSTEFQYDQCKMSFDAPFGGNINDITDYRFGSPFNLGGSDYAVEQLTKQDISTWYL

[2] = biological target: T2, MBP-SlEIL2 (Solanum lycopersicum (tomato), UniProt Q94FV3 1-614); conditions: protein: recombinant; tags: MBP (pMAL-c5G); chain copies: 2; label: 5' biotin; blunt
T2 sequence: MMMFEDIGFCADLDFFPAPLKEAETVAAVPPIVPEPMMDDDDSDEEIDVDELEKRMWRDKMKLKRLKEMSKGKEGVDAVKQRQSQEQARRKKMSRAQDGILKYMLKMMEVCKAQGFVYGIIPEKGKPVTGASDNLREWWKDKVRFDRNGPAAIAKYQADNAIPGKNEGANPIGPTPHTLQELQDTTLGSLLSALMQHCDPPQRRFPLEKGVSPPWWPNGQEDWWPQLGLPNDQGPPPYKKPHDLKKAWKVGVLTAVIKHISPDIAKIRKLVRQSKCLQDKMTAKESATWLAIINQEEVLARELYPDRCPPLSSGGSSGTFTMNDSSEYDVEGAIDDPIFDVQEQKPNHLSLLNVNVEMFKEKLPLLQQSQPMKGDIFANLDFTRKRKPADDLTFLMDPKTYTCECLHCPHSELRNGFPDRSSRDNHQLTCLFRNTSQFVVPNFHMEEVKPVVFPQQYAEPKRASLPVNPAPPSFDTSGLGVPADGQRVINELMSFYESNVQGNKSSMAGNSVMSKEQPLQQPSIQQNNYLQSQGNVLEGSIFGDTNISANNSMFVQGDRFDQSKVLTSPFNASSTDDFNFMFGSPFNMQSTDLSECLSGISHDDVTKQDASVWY

[3] = biological target: T3, MBP-SlEIL1 (Solanum lycopersicum (tomato), UniProt Q94FV4 1-610); conditions: protein: recombinant; tags: MBP (pMAL-c5G); chain copies: 2; label: 5' biotin; blunt
T3 sequence: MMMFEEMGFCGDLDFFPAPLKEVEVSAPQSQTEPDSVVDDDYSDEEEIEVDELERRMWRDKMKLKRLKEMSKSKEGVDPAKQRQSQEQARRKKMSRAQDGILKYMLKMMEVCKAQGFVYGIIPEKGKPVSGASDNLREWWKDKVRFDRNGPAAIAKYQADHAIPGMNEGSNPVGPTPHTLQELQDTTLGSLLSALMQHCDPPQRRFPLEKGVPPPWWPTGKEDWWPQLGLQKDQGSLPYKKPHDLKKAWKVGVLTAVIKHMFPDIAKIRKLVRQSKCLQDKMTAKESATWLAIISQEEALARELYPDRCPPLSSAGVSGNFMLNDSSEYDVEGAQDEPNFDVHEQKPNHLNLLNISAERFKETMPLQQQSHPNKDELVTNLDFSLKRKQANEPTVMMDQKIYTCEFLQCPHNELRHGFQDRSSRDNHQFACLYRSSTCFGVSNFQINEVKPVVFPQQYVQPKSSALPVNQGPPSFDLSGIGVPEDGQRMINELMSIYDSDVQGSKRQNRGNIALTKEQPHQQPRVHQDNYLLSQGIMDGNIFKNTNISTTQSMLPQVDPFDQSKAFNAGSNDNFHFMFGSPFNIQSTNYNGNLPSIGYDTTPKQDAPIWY

[4] = biological target: MBP-SlEIL4 (Solanum lycopersicum (tomato), UniProt A0A3Q7GZH0 1-605); conditions: protein: recombinant; tags: MBP (pMAL-c5G); label: 5' biotin; blunt

Measured: binding result

B1: SlERF.D2 promoter EBS probe WT (dsDNA)
DNA 1: GTTATAACAGACATACATGCGCTAATATCG
DNA 2: CGATATTAGCGCATGTATGTCTGTTATAAC
binds: all assays above
